Source: US12404345B2, “Humanized antibodies against iRHOM2” (SCIRHOM GMBH, priority 2021, dated 2025)

Target: T1, endogenous iRhom2 on THP-1 cells (Homo sapiens, UniProt Q6PJF5)
T1 construct: THP-1 cells, a human monocytic cell line endogenously expressing both iRhom2 and iRhom1; host or cells: THP-1
T1 sequence (Q6PJF5 1-856): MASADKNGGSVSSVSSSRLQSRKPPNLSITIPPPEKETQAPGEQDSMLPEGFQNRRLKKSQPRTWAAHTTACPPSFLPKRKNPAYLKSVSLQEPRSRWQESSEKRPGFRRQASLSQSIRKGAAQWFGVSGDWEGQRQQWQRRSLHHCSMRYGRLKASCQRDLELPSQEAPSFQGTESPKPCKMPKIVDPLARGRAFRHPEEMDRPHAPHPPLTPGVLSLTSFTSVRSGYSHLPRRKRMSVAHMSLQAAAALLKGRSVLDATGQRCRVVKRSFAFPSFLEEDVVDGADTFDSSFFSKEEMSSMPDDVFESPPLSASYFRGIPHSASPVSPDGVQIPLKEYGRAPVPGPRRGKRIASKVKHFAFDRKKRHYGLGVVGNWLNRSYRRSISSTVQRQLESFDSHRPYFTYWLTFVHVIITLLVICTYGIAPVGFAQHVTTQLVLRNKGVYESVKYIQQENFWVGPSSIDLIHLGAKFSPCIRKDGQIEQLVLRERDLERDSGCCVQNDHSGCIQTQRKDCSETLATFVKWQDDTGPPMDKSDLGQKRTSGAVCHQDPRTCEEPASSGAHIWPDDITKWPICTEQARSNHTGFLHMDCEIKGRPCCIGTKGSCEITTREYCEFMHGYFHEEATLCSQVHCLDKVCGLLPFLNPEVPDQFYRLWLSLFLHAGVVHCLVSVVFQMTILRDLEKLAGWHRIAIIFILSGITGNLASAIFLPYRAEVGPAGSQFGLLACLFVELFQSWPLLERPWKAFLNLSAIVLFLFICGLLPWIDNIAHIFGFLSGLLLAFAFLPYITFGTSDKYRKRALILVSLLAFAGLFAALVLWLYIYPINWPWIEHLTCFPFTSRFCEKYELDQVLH
Assay: FACS binding to THP-1 cells endogenously expressing iRhom2 and iRhom1
Details: antibody at 3 μg/ml
Method: In this study, binding specificity analyses of the humanized antibody 42-B-02 as a representative example of the antibodies of the invention in cell lines endogenously expressing iRhom2 were performed. The studies were conducted on RPMI-8226 cells, a human B lymphocytic cell line endogenously expressing iRhom2 but being endogenously negative for iRhom1, on THP-1 cells, a human monocytic cell line endogenously expressing both iRhom2 and iRhom1 and on RH-30 cells, a human […] cell line endogenously negative for iRhom2 but endogenously expressing iRhom1.
In brief, human RPMI-8226 cells (Deutsche Sammlung von Mikroorganismen und Zellkulturen, Germany), THP-1 cells (American Type Culture Collection, USA) and RH-30 cells (Deutsche Sammlung von Mikroorganismen und Zellkulturen, Germany) were harvested with 10 mM EDTA in PBS, washed and resuspended in FACS buffer (PBS, 3% FBS, 0.05% sodium azide), and seeded in Nunc U-bottom 96-well plates (Thermo Fisher Scientific, USA) at approximately 2×10^5 cells per well. In order to pellet cells and remove supernatants, the plates were centrifuged at 1,500 rpm and 4° C. for 3 minutes. […] Finally, cells were resuspended in 150 μl per well of FACS buffer and analyzed using a BD Accuri™ C6 Plus flow cytometer (Becton Dickinson, Germany).

binding to THP-1 cells (endogenously expressing iRhom2 and iRhom1): strong binding
B1: 42-B-02: humanized antibody binding human iRhom2; HCVD SEQ ID NO 33, LCVD SEQ ID NO 37 (antibody, V domains shown)
VH: QVTLRESGPALVKPTQTLTLTCTFSGFSLSTFGRGVGWIRQPPGKALEWLAHIWWDDEKYYNSALKSRLTISKDTSKNQVVLTITNMDPVDTATYYCARIQNYGSNYWYFDVWGQGTLVTVSS
VL: AIQLTQSPSSLSASVGDRVTITCRASSRISYMFWYQQKPGKAPKVLIYDTSNLASGVPSRFSGSGSGTDYTLTISSLQPEDFATYYCQQWNSYPLTFGQGTKLEIK
modifications: antibody sequences
